Measurements: paper PMC11684626

Biological target: HA-PEG10 gag-pol (Homo sapiens) (UniProt Q86TG7)
Assay: co-sedimentation; crude VLP preparation: conditioned medium of co-transfected HEK293 cells, cleared at 2700 x g, ultracentrifuged at 134,000 x g for 4 hr at 4°C over a 30% sucrose cushion; pellet analysed by western blot

Sequence of UniProt Q86TG7 (Q86TG7 whole entry): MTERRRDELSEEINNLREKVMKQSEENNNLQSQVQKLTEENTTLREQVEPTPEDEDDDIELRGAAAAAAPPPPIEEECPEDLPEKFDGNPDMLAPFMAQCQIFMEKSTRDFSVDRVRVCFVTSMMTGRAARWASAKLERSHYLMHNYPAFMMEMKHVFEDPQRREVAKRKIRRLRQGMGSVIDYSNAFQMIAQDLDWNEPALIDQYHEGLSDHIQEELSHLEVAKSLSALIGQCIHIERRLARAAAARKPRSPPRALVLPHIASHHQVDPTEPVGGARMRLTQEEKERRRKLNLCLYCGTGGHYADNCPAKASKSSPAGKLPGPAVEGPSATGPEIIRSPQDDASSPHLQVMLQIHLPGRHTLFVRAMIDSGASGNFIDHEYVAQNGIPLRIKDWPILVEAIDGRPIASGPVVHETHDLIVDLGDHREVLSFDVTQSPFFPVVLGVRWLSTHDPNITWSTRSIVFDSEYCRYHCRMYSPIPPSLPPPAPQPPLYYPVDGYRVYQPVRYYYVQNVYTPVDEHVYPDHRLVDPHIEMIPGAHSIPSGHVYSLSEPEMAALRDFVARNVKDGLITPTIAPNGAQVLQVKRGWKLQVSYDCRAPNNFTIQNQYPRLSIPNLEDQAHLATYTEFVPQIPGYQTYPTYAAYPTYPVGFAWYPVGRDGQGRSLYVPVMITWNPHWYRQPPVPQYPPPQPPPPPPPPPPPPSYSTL

- abundance of RTL8 relative to HA-PEG10 in the VLP fraction: 5%
Substance: HA-HsRTL8c (from UniProt A6ZKI3 1-113) (natural protein)
